B1: CDC25A (parent)
chain: TVAGKHQDLKYISPEIMASVLNGK

Variants of: B1
Test: protein stability index of a GFP-peptide fusion (GPS, HEK-293T) (PSI 1-6); higher = more stable
Conditions: c terminus: a fixed tail appended
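Further: lentivirally expressed fusions sorted by FACS into six bins by GFP to DsRed ratio, PSI derived from sequencing read proportions per bin multiplied by bin number.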

Row | Variant | protein stability index
1 | TVAGKHADLKYISPEIMASVLNGK [Q7A] | 2.85
2 | TVAGKHKDLKYISPEIMASVLNGK [Q7K] | 2.6
3 | TVAGKHDDLKYISPEIMASVLNGK [Q7D] | 3.06
4 | TVAGKHMDLKYISPEIMASVLNGK [Q7M] | 2.7
5 | TVAGKHHDLKYISPEIMASVLNGK [Q7H] | 3.27
6 | TVAGKHVDLKYISPEIMASVLNGK [Q7V] | 3.17
7 | TVAGKHSDLKYISPEIMASVLNGK [Q7S] | 3.16
8 | TVAGKHRDLKYISPEIMASVLNGK [Q7R] | 2.64
9 | TVAGKHLDLKYISPEIMASVLNGK [Q7L] | 2.62
10 | TVAGKHYDLKYISPEIMASVLNGK [Q7Y] | 2.49
11 | TVAGKHIDLKYISPEIMASVLNGK [Q7I] | 2.37
12 | TVAGKHGDLKYISPEIMASVLNGK [Q7G] | 3.08
13 | TVAGKHWDLKYISPEIMASVLNGK [Q7W] | 2.36
14 | TVAGKHCDLKYISPEIMASVLNGK [Q7C] | 2.79
15 | TVAGKHTDLKYISPEIMASVLNGK [Q7T] | 2.69
16 | TVAGKHNDLKYISPEIMASVLNGK [Q7N] | 2.46
17 | TVAGKHEDLKYISPEIMASVLNGK [Q7E] | 3.52
18 | TVAGKHPDLKYISPEIMASVLNGK [Q7P] | 3.24
19 | TVAGKEQDLKYISPEIMASVLNGK [H6E] | 3.66
20 | TVAGKYQDLKYISPEIMASVLNGK [H6Y] | 3.25
21 | TVAGKDQDLKYISPEIMASVLNGK [H6D] | 3.92
22 | TVAGKGQDLKYISPEIMASVLNGK [H6G] | 3.06
23 | TVAGKAQDLKYISPEIMASVLNGK [H6A] | 3.73
24 | TVAGKTQDLKYISPEIMASVLNGK [H6T] | 3.24

Row | Variant | protein stability index
25 | TVAGKNQDLKYISPEIMASVLNGK [H6N] | 2.96
26 | TVAGKPQDLKYISPEIMASVLNGK [H6P] | 3.38
27 | TVAGKQQDLKYISPEIMASVLNGK [H6Q] | 3.43
28 | TVAGKRQDLKYISPEIMASVLNGK [H6R] | 2.81
29 | TVAGKCQDLKYISPEIMASVLNGK [H6C] | 2.57
30 | TVAGKWQDLKYISPEIMASVLNGK [H6W] | 2.24
31 | TVAGKSQDLKYISPEIMASVLNGK [H6S] | 2.94
32 | TVAGKKQDLKYISPEIMASVLNGK [H6K] | 3.27
33 | TVAGKMQDLKYISPEIMASVLNGK [H6M] | 2.26
34 | TVAGKLQDLKYISPEIMASVLNGK [H6L] | 2.13
35 | TVAGKFQDLKYISPEIMASVLNGK [H6F] | 2.75
36 | TVAGKVQDLKYISPEIMASVLNGK [H6V] | 2.45
37 | TVAGKIQDLKYISPEIMASVLNGK [H6I] | 2.63
38 | TVAGKHQDLIYISPEIMASVLNGK [K10I] | 1.69
39 | TVAGKHQDLGYISPEIMASVLNGK [K10G] | 3.44
40 | TVAGKHQDLCYISPEIMASVLNGK [K10C] | 2.52
41 | TVAGKHQDLYYISPEIMASVLNGK [K10Y] | 1.76
42 | TVAGKHQDLAYISPEIMASVLNGK [K10A] | 2.99
43 | TVAGKHQDLDYISPEIMASVLNGK [K10D] | 3.85
44 | TVAGKHQDLFYISPEIMASVLNGK [K10F] | 1.78
45 | TVAGKHQDLWYISPEIMASVLNGK [K10W] | 1.62
46 | TVAGKHQDLQYISPEIMASVLNGK [K10Q] | 2.85
47 | TVAGKHQDLRYISPEIMASVLNGK [K10R] | 2.8
48 | TVAGKHQDLPYISPEIMASVLNGK [K10P] | 3.21

Row | Variant | protein stability index
49 | TVAGKHQDLTYISPEIMASVLNGK [K10T] | 3.31
50 | TVAGKHQDLLYISPEIMASVLNGK [K10L] | 1.9
51 | TVAGKHQDLSYISPEIMASVLNGK [K10S] | 2.99
52 | TVAGKHQDLNYISPEIMASVLNGK [K10N] | 3.34
53 | TVAGKHQDLMYISPEIMASVLNGK [K10M] | 2.69
54 | TVAGKHQDLEYISPEIMASVLNGK [K10E] | 3.42
55 | TVAGKHQDLVYISPEIMASVLNGK [K10V] | 2.24
56 | TVAGKHQDLHYISPEIMASVLNGK [K10H] | 2.88
57 | TVAGKHQDGKYISPEIMASVLNGK [L9G] | 3.77
58 | TVAGKHQDWKYISPEIMASVLNGK [L9W] | 2.81
59 | TVAGKHQDDKYISPEIMASVLNGK [L9D] | 4.09
60 | TVAGKHQDRKYISPEIMASVLNGK [L9R] | 3.51
61 | TVAGKHQDPKYISPEIMASVLNGK [L9P] | 3.37
62 | TVAGKHQDAKYISPEIMASVLNGK [L9A] | 3.44
63 | TVAGKHQDSKYISPEIMASVLNGK [L9S] | 3.33
64 | TVAGKHQDFKYISPEIMASVLNGK [L9F] | 3.1
65 | TVAGKHQDYKYISPEIMASVLNGK [L9Y] | 3.08
66 | TVAGKHQDEKYISPEIMASVLNGK [L9E] | 3.94
67 | TVAGKHQDTKYISPEIMASVLNGK [L9T] | 3.47
68 | TVAGKHQDMKYISPEIMASVLNGK [L9M] | 3.29
69 | TVAGKHQDHKYISPEIMASVLNGK [L9H] | 3.65
70 | TVAGKHQDNKYISPEIMASVLNGK [L9N] | 3.72
71 | TVAGKHQDVKYISPEIMASVLNGK [L9V] | 3.27
72 | TVAGKHQDQKYISPEIMASVLNGK [L9Q] | 3.71

Row | Variant | protein stability index
73 | TVAGKHQDIKYISPEIMASVLNGK [L9I] | 3.25
74 | TVAGKHQDKKYISPEIMASVLNGK [L9K] | 3.74
75 | TVAGKHQDCKYISPEIMASVLNGK [L9C] | 3.13
76 | TSAGKHQDLKYISPEIMASVLNGK [V2S] | 3.28
77 | TQAGKHQDLKYISPEIMASVLNGK [V2Q] | 3.35
78 | TIAGKHQDLKYISPEIMASVLNGK [V2I] | 2.91
79 | TFAGKHQDLKYISPEIMASVLNGK [V2F] | 2.94
80 | TEAGKHQDLKYISPEIMASVLNGK [V2E] | 3.68
81 | TGAGKHQDLKYISPEIMASVLNGK [V2G] | 3.33
82 | TPAGKHQDLKYISPEIMASVLNGK [V2P] | 3.51
83 | TLAGKHQDLKYISPEIMASVLNGK [V2L] | 2.96
84 | TRAGKHQDLKYISPEIMASVLNGK [V2R] | 3.21
85 | TYAGKHQDLKYISPEIMASVLNGK [V2Y] | 2.79
86 | TWAGKHQDLKYISPEIMASVLNGK [V2W] | 2.55
87 | TCAGKHQDLKYISPEIMASVLNGK [V2C] | 3.32
88 | TDAGKHQDLKYISPEIMASVLNGK [V2D] | 3.89
89 | TAAGKHQDLKYISPEIMASVLNGK [V2A] | 3.28
90 | THAGKHQDLKYISPEIMASVLNGK [V2H] | 3.33
91 | TTAGKHQDLKYISPEIMASVLNGK [V2T] | 3.41
92 | TNAGKHQDLKYISPEIMASVLNGK [V2N] | 3.11
93 | TMAGKHQDLKYISPEIMASVLNGK [V2M] | 3.11
94 | TKAGKHQDLKYISPEIMASVLNGK [V2K] | 2.92
